test: soluble on expression in E. coli; label from the status in PepcDB or PDB records

Sequence | soluble on expression in E. coli
MSLFDPNDYKDEIRQIARDKANLELDLKGDIGWSLFPWLGLELHDTSIASAATPTKPFADLQMLGLSVRVLPLLRKDVQMSAIRVEGLSLDLVRDKQGKGNWENIGKPAQPQAPAAPSETPPAADGKGAQAQAPEQAPQNDSPRTPIKLDIDSLNVNNARVTYTDEASGKQYNVEGIELSTGAIREGSSIPLKLNAYLGTNQPVVRVKTELTGNLRFDTALRRYQLEDARLSGEASGEPLQGKTATFSAQGQLLLDQSAQIAEWNGLKLSVNQLRALGELKARELDKDTKFSGGLSIAPMNLREFLAGIGVTLPAMADANTLGKFELNTRLAGSRNSLNLEDLKLGLDDTAFSGRFGIADFARQSLRAQLKGDKLDLDRYLPAKAKQAQDAASATRKAEVDATVASAAQGNTPLPEKPTRQAWSDAPLLPIATLRKLDLDVALNFGRLTVEKLPIDDASLKLRGQGGVISLDDMRGGLYNGRFNAKANLDVRQDSAVLTATKHIANVPVERLLEAQGKKPPVKGLLDLDADIRTSGNSEKSWIDHLNGNARFSLINGVLPDANLEQQLCQGIATLNRKALAGTHGGKDTPFRELKGSLNFTNGVASNPDLKVAIPGLAVSGHGDIDLRVLGMDYRIGVEIQGDKSDMPDPACQVNQRYAGIEWPLLCRGPLELGAKACRLDKEGMGKVAAKLAGNRLNEKLEEKLGDKVSPELKDALKGLFNRKEGHHHHHH | soluble
MRPARALIDLQALRHNYQLAREVTGAKALAVIKADAYGHGAVRCAQALEAEADGFAVACIEEALELRAAGIRAPILLLEGFFEADELPLIVEHDFWCVVHSLWQLDAIEQARLAKPIHVWLKLDSGMHRVGLHPNDYKAAYQRLQASANVAKIVLMSHFARADELDCTRSVEQVAVFLGARADLTAEISLRNSPAVLGWPRVPSDWVRPGLMLYGSSPFDEPQATASRLQPVMTLESKVICVRELPAGEPVGYGARFITPKPMRIGVVAMGYADGYPRQAPTGTPVFVDGVRSQLLGRVSMDMLCIDLTDVPQAGLGSTVELWGKNILASEVATAADTIPYQIFCNLKRVPRLYSGN | soluble
MAHHHHHHMKGTLAGYTRGLHGQTKQTALVRVENVNTREDATWYVGKRVCYVYHGKKVKRCVRWSKAPARRSTTRALWGRVTRPHGNAGMMRVKFNGASVPASAIGRRIRVYLYPSQI | soluble
MRSLARGVTTNISKLIEARPKNTGQTVYLTHVKWVTGKSQLEHYFKRYGSIQSVNMFYDPDTGLHRGFASITFDSKDGANKAIEQRPHVIDGDRVDVEPYIPLISKNKKKDLML | not soluble
AEIVEGRDYTVLSAPQPTEGDSEHIEVIEFFWYGCPHCSDLHPHLSRWLENKPADVAFRFVPAILRNNWVPGAKTFYAMESLGLTQTLHDKVYHAIHREKTDLSKEATLFDWIGKQGVDRDKFIGAYNSFTVQNQANRSAQMIRQYKLTGVPALVVDGRYLTSGKAGGTPQDTISVLNQLIEK | not soluble
GHHHHHHHHHHSSGHIEGRHMKRMIALDGAQGEGGGQILRSALSLSMITGQPFTITSIRAGRAKPGLLRQHLTAVKAATEICGATVEGAELGSQRLLFRPGTVRGGDYRFAIGSAGSCTLVLQTVLPALWFADGPSRVEVSGGTDNPSAPPADFIRRVLEPLLAKIGIHQQTTLLRHGFYPAGGGVVATEVSPVASFNTLQLGERGNIVQMRGEVLLAGVPRHVAEREIATLAGSFSLHEQNIHNLPRDQGPGNTVSLEVESENITERFFVVGEKRVSAEVVAAQLVKEVKRYLASTAAVGEYLADQLVLPMALAGAGEFTVAHPSCHLLTNIAVVERFLPVRFSLIETDGVTRVSIE | soluble
MGSDKIHHHHHHSVQSIINNPAVDPHDYEPTTKVGKSVASADLVVASGIGYDGWMDKVVKSADKSKNYLRVADDLMNKKEGDNEHIWYDPRTMSKLANTLADKFAKKDPADKATFKANAKKYIASLDNLNTLINKLKSKVNGQLVDVSEPVFGYALDYLGYKVNDDHFSKSTEDGTDYSAKDIHGIETDIKEKKIAFFVNNIQASSKTVNQLVKLAEQNNVPVLKVTETLPKGKNYRTWMTSQYQQLEKIQDQATNSAK | not soluble
MSLALIVQKFGGTSVGTVERIEQVAEKVKKFREAGDDVVVVVSAMSGETNRLIGLANQIMEQPVPRELDVMVSTGEQVTIALLSMALIKRGVPAVSYTGNQVRILTDSAHTKARILHIDDTHIRADLKAGRVVVVAGFQGVDGNGNITTLGRGGSDTTGVALAAALKADECQIYTDVDGVYTTDPRVVPQARRLDKITFEEMLEMASLGSKVLQIRAVEFAGKYNVPLRVLHSFQEGPGTLITIDDEEESMEQPIISGIAFNRDEAKLTIRGVPDTPGVAFKILGPISAANVEVDMIVQNVAHDNTTDFTFTVHRNDYLNALEILKQTAANIGAREAIGDTNIAKVSIVGVGMRSHAGVASRMFEALAKESINIQMISTSEIKVSVVIEEKYLELAVRALHTAFELDAPARQGEEGHHHHHH | soluble
MQIDDALLQRLEKLSMLEIKDEHKESVKGHLAEVLGFVENIFALETSALKTDIELCTPLREDEPKSQPNTAKEILSQNKHSQDHYFVVPKIIE | not soluble
MTTMNPFLVQSTLPYLAPHFDQIANHHYRPAFDEGMQQKRAEIAAIALNPQMPDFNNTILALEQSGELLTRVTSVFFAMTAAHTNDELQRLDEQFSAELAELANDIYLNGELFARVDAVWQRRESLGLDSESIRLVEVIHQRFVLAGAKLAQADKAKLKVLNTEAATLTSQFNQRLLAANKSGGLVVNDIAQLAGMSEQEIALAAEAAREKGLDNKWLIPLLNTTQQPALAEMRDRATREKLFIAGWTRAEKNDANDTRAIIQRLVEIRAQQATLLGFPHYAAWKIADQMAKTPEAALNFMREIVPAARQRASDELASIQAVIDKQQGGFSAQPWDWAFYAEQVRREKFDLDEAQLKPYFELNTVLNEGVFWTANQLFGIKFVERFDIPVYHPDVRVWEIFDHNGVGLALFYGDFFARDSKSGGAWMGNFVEQSTLNKTHPVIYNVCNYQKPAAGEPALLLWDDVITLFHEFGHTLHGLFARQRYATLSGTNTPRDFVEFPSQINEHWATHPQVFARYARHYQSGAAMPDELQQKMRNASLFNKGYEMSELLSAALLDMRWHCLEENEAMQDVDDFELRALVAENMDLPAIPPRYRSSYFAHIFGGGYAAGYYAYLWTQMLADDGYQWFVEQGGLTRENGLRFREAILSRGNSEDLERLYRQWRGKAPKIMPMLQHRGLNI | soluble
MHMKLDDITYMNPWWEGKEDYHVKQWEKQKVHWEPKWIREISLKPFSLNFVLGPRQVGKTTGIKLLIQKILEENPPESVLYLNLEILPTYRELLDIIREFQELKKEEGIKTGYIFLDEASSLEGWWRGVKPLIDSGLLENDVITVTGSSSLRVRRDIELFPGRRGGGKTLEVMPLSFPEYARVMGLKKHKLEGSKVIKLFEKYIQTGGFPGSINGFPMEDLLGAYIGEFVRFGKSLEIAKEIFSALIRSAPSATSFRALAEMTSGYSYKVVQDYIEFFRDLYILGMAYLKQGNQVMYRREKKFFFRDPLLAKLFSLWSGTEIGKDALYEWIVQEHVFRKFGEIHYFRNSYEIDIIASDMKIEVKAGKAHRKYPRGVKVLEKEDVPFFLIELYNEDC | soluble
MSLNPANLPFDSDTMLQGLRAWVECESPTWDTAAVERMLDLAAREMAIMGATIERIAGRQGFAGCVRARFPHPKQGEPGILIAGHLDTVHPVGTLSKLPFRREGNKAFGPGIFDMKGGNYLTLEAIKQLARASFTTPLPITVLFTPDEEVGTPSTRDIIEAEAARNKYVLVPEPGRPDNGVVTGRYAIARFNLEAIGKPSHAGATLSSGRSAIREMAKQILAIDAMTTEDCTFSVGIVHGGQWVNCVATTCTGEALSMAKRQADLDRGVDRMLALSGSSSDVTFKVTRGVTRPVWEPDSGTMALYEKARAVASQLGVSLPHGSAGGGSDGNFTGAMGIPTLDGLGVRGADAHTLNEHIEVDSLAERGRLMAGLLATLEEGHHHHHH | not soluble
MRMLRRLRRATVAAAVWLATVCLVASCANADPLGSATGSVKSIVVGSGDFPESQVIAEIYAQVLQANGFDVGRRLGIGSRETYILALKDHSIDLVPEYIGNLLLYFQPDATVTMLDAVELELYKRLPGDLSILTPSPASDTDTVTVTAATAARWNLKTIADLAPHSADVKFAAPSAFQTRPSGLPGLRHKYSLDIAPGNFVTINDGGGAVTVRALVEGTATAANLFSTSAAIPQNHLVVLEDPEHNFLAGNIVPLVNSRKKSDHLKDVLDAVSAKLTTAGLAELNAAVSGNSGVDPDQAARKWVRDNGFDHPVRQ | soluble
MGSDKIHHHHHHMTAPFSTQLKRCTTCLLPETHETLVLDSEGVCNICRAQEVKAEINWEERLVHLDKLVAEYRGNYRYDCLIPFSGGKDSTWTLYYLMNRYPGIKPLVVRFNHGFLRPNLRANCDRVFRKLGVDVHDFSPSWKVVQRLMLQSFLEKGDFCWHCHTGIFAYPMQVAIKEQVPLIFWGEPSAEYTAYYNYDQAEEVDEERFNRYVNLGISAEDMLVRLDGYLDERDVEPFRYPPLKELRQLGYRSVCLGSYIPWDVKMQVGKIREELGWKGDLVENVPEDFNYEKIECWMQGVRDYIKYIKRGYTRPTHLAAIDLRNNRISKEEAKAMITQFEGRRPPSLDLFLDYVGLDEEQFYTIAMGHQVSPWQFDPDSIKSGPKTPDFEDWLRGDGLDLVDAEDQLGRWADSCSSCSSSSSCSGG | not soluble
SKLLDKDGKVFAEVGTERREYIEYKDIPETLKNAILTTEDARFYEHDGIDPIRLGGAVVANVTDGFGAEGASTLSQQIIKMSYLDYTNKTLARKAQEAWLALQLEEKYSKNDILEIYVNKVYMSDRVHGMQTAAEHYFGKNVKDLTLAETALLAGMPQSPNNYNPYDHP | not soluble
MKVERGDVIRLHYTGRVKETGQIFDTTYEEVAKEAGIYNPKGIYGPVPIIVGAGHVISGLDKRLVGLEVGKKYTLEVPPEEGFGLRDPKLIKVFTMGQFRKQGIVPFPGLEVEVTTDNGRKMKGRVITVSGGRVRVDFNHPLAGKTLIYEVEIVEKIEDPIEKIKALIELRLPMIDRDKVIIEVGEKDVKVNFGEQDVDPKTLILGEILLESDIKFLGYEKVEFKPSVEELLRPKQEEPVEEEKKEEQEESEEAQSS | soluble
MRSTEVGRVVEDFIVLPPTPKSKWKLSDFELLHKLGGGNYGDVHLASVKDCNFVCALKRLSIKKLADFDIATQLRREIEIAFNTRHKYLLRTYAYFFDETDIYLIMEPCSNGMLYTELNRVKCFAPPTAARYVAQLAEALLYLHQHHILHRDIKPENILLDHNNNIKLADFGWSVHDPDNRRKTSCGTPEYFPPEIVGRQAYDTSADLWCLGIFCYELLVGKTPFVGKDTDQICKNIHSMHFKIPENIPSEAKDLIANLLLRDGSRRLALHRVVNHQFLLKYYYLPNNLQPPTGKRPRLDAEPTAGKEN | not soluble
MSAGQRKEQKLIPVERRQIILEMVAEKGIVSIAELTDRINVSHMTIRRDLQKLEQQGAVVLVSGGVQSPGRVAHEPSHQVKTALAMTQKAAIGKLAASLVLPGSCIYLDAGTTTLAIAQHLIHMESLTVVTNDFVIANYLLDNSNCTIIHTGGAVCRENRSCVGEAAATMLCSLMIDQAFISASSWSVRGISTPAEDKVTVKRAIASASRQRVLVCDATKYGQVATWLALPLSEFDQIITDDGLPESASRALAKQDLSLLVAKNELEHHHHHH | soluble
